Assay results reported in publication PMC4449314.
Read-outs that look alike come from different tables or passages of the source. Values belong to the substance of their own block, whether it stands above or below them.

Tests used:
Assay in all cases: non-reducing SDS-PAGE of disulfide-linked products after anti-HA IP
[1] = target: HA-tagged human DAP12 aspartic acid-to-alanine mutant (human)
[2] = target: HA-tagged human DAP12 aspartic acid-to-asparagine mutant (human)
[3] = target: HA-tagged human DAP12 aspartic acid-to-asparagine mutant (human); remark: listed apart in the source
[4] = target: HA-tagged human DAP12 aspartic acid-to-glutamic acid mutant (human)
[5] = target: HA-tagged human DAP12 aspartic acid-to-glutamine mutant (human)
[6] = target: HA-tagged human DAP12 threonine-to-alanine mutant (human)

- fold reduction of tetramer compared to WT [1]: 2 fold
- fold reduction of trimer compared to WT [1]: 10 fold
- stoichiometry N [1]: 2
Substance: HA-tagged human DAP12 aspartic acid-to-alanine mutant (natural protein)

- stoichiometry N [2]: 2
- stoichiometry N [3]: 3
Substance: HA-tagged human DAP12 aspartic acid-to-asparagine mutant (natural protein)

- stoichiometry N [4]: 2
Substance: HA-tagged human DAP12 aspartic acid-to-glutamic acid mutant (natural protein)

- stoichiometry N [5]: 2
Substance: HA-tagged human DAP12 aspartic acid-to-glutamine mutant (natural protein)

- fold decrease of trimer compared to WT [6]: 5 fold
- fold increase of tetramer compared to WT [6]: 2 fold
- stoichiometry N [6]: 2
Substance: HA-tagged human DAP12 threonine-to-alanine mutant (natural protein)
